Biological target: T1, recombinant DbpA from B. burgdorferi strain 297 (DbpA297) (Borrelia burgdorferi strain 297, UniProt O50917)
T1 construct: also called recombinant DbpA297
Experiment: multiplex microsphere immunoassay (MIA, Luminex); recombinant antigens coupled to MagPlex-C microspheres; diluted MAb incubated 1 h at RT; PE-labelled secondary antibody; MFI read on a FlexMap 3D
Conditions: both partners purified

T1 sequence (O50917 30-168): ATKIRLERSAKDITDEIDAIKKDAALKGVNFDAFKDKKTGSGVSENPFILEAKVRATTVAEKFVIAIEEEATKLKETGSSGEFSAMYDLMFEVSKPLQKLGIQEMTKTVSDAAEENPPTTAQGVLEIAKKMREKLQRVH

B1: F945 IgG (recombinant human monoclonal antibody, IgG1/kappa) (antibody, V domains shown)
VH: QVQLVESGGGVVQPGRSLRLSCAASGFSFNTYAFHWVRQGPGKGLEWVAGISFDGSKRYYADSVKGRFTVSRDNSKNTLYLQMNGLIPEDTAVYYCARDRRIVVVSAPGYWGQGTLVTVSS
VL: DIQMTQSPSSLSASVGDRVTITCQASHDISNYLNWYQQKPGKAPKLLIFDASYLETGVPSRFSGSGSGTDFTFTINSLQSEDIATYYCQQYDTLLSFGGGTRVEIK
Q: Does B1 bind?
A: no binding

Reference: paper PMC12277278 (Frontiers in Immunology, 2025)
